Laboratory results taken from article PMC9108660.

Legend:
[1] = molecular target: dCas9 (catalytically deactivated Cas9) (UniProt Q99ZW2); assay: magnetic bead pull-down, qPCR; conditions: 2 mM Mg2+; SPR: 2 mM MgCl2, 37 °C, 30 min, 2 µL DNA (up to 1000 ng/µL), dRNP on graphdiyne chip, rinse 2 mM MgCl2; bead assay: 2 mM MgCl2, 37 °C, 1 h; pH not stated
[2] = molecular target: dCas9 (catalytically deactivated Cas9) (UniProt Q99ZW2); assay: SPR; conditions: SPR: 2 mM MgCl2, 37 °C, 30 min, 2 µL DNA (up to 1000 ng/µL), dRNP on graphdiyne chip, rinse 2 mM MgCl2, bead assay: 2 mM MgCl2, 37 °C, 1 h, pH not stated

Sequence of UniProt Q99ZW2 (Q99ZW2 whole entry): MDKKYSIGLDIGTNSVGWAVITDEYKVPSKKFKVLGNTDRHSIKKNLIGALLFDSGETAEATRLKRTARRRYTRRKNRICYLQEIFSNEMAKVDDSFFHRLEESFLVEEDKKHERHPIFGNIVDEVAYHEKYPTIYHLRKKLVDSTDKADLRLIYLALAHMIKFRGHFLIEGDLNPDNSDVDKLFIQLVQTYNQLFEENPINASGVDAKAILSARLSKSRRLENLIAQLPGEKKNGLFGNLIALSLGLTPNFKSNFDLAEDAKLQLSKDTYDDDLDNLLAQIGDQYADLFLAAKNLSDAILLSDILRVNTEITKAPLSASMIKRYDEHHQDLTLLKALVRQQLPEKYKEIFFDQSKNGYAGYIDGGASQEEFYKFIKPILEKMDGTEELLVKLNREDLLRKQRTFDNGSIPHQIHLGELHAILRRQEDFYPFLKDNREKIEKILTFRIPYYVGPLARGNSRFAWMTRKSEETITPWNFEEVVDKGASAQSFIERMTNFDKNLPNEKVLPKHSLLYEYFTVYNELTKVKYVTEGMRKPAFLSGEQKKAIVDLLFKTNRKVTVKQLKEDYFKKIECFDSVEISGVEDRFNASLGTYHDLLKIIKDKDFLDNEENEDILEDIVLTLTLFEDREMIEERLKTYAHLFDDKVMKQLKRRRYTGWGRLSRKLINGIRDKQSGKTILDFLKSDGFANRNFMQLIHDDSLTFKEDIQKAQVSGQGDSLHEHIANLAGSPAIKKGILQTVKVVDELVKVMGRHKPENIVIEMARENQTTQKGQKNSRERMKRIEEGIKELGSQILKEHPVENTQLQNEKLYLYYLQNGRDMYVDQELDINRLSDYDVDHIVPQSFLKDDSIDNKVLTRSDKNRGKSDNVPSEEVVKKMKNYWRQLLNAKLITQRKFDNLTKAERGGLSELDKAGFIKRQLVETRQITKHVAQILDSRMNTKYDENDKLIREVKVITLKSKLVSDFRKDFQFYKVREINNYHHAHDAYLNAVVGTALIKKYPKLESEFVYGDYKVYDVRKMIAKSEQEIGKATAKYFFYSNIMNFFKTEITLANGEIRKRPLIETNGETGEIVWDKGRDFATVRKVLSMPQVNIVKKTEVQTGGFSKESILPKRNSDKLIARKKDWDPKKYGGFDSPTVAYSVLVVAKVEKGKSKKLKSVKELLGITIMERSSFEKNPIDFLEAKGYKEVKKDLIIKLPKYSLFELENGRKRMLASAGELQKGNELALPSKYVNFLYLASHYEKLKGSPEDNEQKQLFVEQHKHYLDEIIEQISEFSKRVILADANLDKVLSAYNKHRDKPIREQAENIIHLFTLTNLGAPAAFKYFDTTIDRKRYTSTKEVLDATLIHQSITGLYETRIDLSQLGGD

| Sequence | binding signal [1] [% captured] | Kd [2] | Kd ([2]; 2 mM Mg2+, ka 0.11e5 M-1s-1, kd 6.5e-3 s-1) [nM] |
| --- | --- | --- | --- |
| GGGUGCCUGCAGCUCCACACUAGGUUUUAGAGCUAGAAAUAGCAAGUUAAAAUAAGGCUAGU [sgRNA-Mut3 + pUC19-Mut3-0.3k amplicon] | 99.8 |  |  |
| GGGUGUAGUAGCCGCCGUCGCGCGUUUUAGAGCUAGAAAUAGCAAGUUAAAAUAAGGCUAGU [sgRNA-GFP-Pos2 + pCDH-GFP-5k amplicon] | 99.7 | 1.38 10^-8 M |  |
| GGGGUUCGCCUUCCGCCGCGUGGGUUUUAGAGCUAGAAAUAGCAAGUUAAAAUAAGGCUAGU [sgRNA-GFP-Pos3 + pCDH-GFP-5k amplicon] |  |  | 591 |
| GGGUGCCUGCAGGUCGCACCUAGGUUUUAGAGCUAGAAAUAGCAAGUUAAAAUAAGGCUAGU [sgRNA-Mut1 + pUC19-Mut1-0.3k amplicon] | 89.2 |  |  |
| GGGUGUAGUAGCCGCCGUCGCGCGUUUUAGAGCUAGAAAUAGCAAGUUAAAAUAAGGCUAGU [sgRNA-GFP-Pos2 + pCDH-GFP-2k amplicon] | 99.4 |  |  |
| GGGUGCCUGCAGCUCCACACUAGGUUUUAGAGCUAGAAAUAGCAAGUUAAAAUAAGGCUAGU [sgRNA-Mut3 + pUC19-Mut3-0.8k amplicon] | 99.8 | 7.61 10^-8 M |  |
| GGGUGCCUGCAGGUCGCACCUAGGUUUUAGAGCUAGAAAUAGCAAGUUAAAAUAAGGCUAGU [sgRNA-Mut1 + pUC19-Mut1-0.8k amplicon] | 69.8 |  |  |
